The target of test [1] is T1, CSF1R-Fc (commercially available, single-sided control protein) (UniProt P07333 20-512, limits assumed).
T1 construct: Recombinant control protein; not shown: Fc part of the bought protein; not described
Put plainly: SPR, BioRad ProteOn XPR 360. As for the experimental part:
The binding affinity of the different domains of the hCSF1R-Fc-CD40L chimeric protein was measured by the surface plasmon resonance (SPR) using the BioRad ProteOn XPR 360 system. Specifically, the affinity of the chimeric protein for human CSF1 and CD40 was determined and compared to recombinant control proteins, and the results are shown in the Table below: […]

Test [2] deals with T2, CD40-His (human, UniProt P25942 21-193).
T2 construct: Octet (biolayer interferometry) reagent; also called recombinant human CD40; not shown: His tag
T2 sequence (P25942 21-193 limits assumed): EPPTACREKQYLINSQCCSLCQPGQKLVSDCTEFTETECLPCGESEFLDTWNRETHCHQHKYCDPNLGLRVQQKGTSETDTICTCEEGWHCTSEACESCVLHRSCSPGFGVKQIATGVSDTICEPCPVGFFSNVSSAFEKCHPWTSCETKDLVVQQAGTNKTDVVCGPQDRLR
Put plainly: bio-layer interferometry (Octet); ligand column: hCD40-his.

The target in test [3] is T3, murine CD40 overexpressed on CHO-K1 cells (CHOK1/CD40) (murine, UniProt P27512 20-289).
T3 construct: whole, on cells; also called mCD40
T3 sequence (looked up): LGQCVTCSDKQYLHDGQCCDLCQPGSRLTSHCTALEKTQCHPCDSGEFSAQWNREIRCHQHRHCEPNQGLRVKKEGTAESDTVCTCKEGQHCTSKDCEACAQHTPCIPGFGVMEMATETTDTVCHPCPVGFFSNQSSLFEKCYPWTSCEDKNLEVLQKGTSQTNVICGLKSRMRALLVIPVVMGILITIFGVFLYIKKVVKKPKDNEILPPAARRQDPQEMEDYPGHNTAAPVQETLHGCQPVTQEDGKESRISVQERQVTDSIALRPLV
Put plainly: flow cytometry on CHOK1/CD40 cells; CHOK1/CD40 cells, flow cytometry. How it is done: For cell binding assays, immortalized cell lines were engineered to stably express CD40 (CHOK1/CD40). Increasing concentrations of the murine CSF1R-Fc-CD40L chimeric protein were incubated with the over-expressing (CHOK1/CD40) cell line for 2 hours. Cells were collected, washed, and stained with antibodies for the detection of chimeric protein binding by flow cytometry.
As a negative control, there was no detectable binding to the parental (non-CD40 expressing) CHOK1 cell line.

The results in this text go back to patent US20190169249A1 (SHATTUCK LABS, published 2019).

T1 sequence (P07333 20-512 limits assumed): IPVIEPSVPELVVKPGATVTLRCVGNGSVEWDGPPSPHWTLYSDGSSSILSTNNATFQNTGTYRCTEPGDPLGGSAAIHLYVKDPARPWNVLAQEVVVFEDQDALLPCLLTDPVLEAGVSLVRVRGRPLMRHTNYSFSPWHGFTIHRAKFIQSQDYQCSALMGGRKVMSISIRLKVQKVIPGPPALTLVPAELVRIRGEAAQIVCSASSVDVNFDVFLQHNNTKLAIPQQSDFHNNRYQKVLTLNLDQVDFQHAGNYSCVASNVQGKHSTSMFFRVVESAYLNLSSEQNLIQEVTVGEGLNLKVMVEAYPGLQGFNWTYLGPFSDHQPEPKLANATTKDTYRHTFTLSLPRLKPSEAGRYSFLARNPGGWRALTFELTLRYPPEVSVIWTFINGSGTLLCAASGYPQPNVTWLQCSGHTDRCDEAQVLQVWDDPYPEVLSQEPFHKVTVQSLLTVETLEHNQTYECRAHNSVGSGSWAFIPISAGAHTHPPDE

B1: recombinant human CSF1 protein (ligand, UniProt P09603 33-190, looked up)
chain: EEVSEYCSHMIGSGHLQSLQRLIDSQMETSCQITFEFVDQEQLKDPVCYLKKAFLLVQDIMEDTMRFRDNTPNAIAIVQLQELSLRLKSCFTKDYEEHDKACVRTFYETPLQLLEKVKNVFNETKNLLDKDWNIFSKNCNNSFAECSSQDVVTKPDCN
notes: the construct is not described
In test [1], B1 displayed a Kd of 0.275 nM, a koff of 0.000335 s⁻¹ and an association rate constant (kon) of 1.22e+06 M⁻¹ s⁻¹.

B2: CD40L-Fc (commercially available, single-sided control protein) (Fc fusion, UniProt P29965 113-261, looked up)
chain: MQKGDQNPQIAAHVISEASSKTTSVLQWAEKGYYTMSNNLVTLENGKQLTVKRQGLYYIYAQVTFCSNREASSQAPFIASLCLKSPGRFERILLRAANTHSSAKPCGQQSIHLGGVFELQPGASVFVNVTDPSQVSHGTGFTSFGLLKL
notes: Recombinant control protein; not shown: Fc part of the bought protein
B2 yielded a Kd in test [2] of 2.42 nM. This counts as single-digit nanomolar.

B3: murine CSF1R-Fc-CD40L chimeric protein (Fc fusion)
chain (part 1 of 2): APVIEPSGPELVVEPGETVTLRCVSNGSVEWDGPISPYWTLDPESPGSTLTTRNATFKNTGTYRCTELEDPMAGSTTIHLYVKDPAHSWNLLAQEVTVVEGQEAVLPCLITDPALKDSVSLMREGGRQVLRKTVYFFSPWRGFIIRKAKVLDSNTYVCKTMVNGRESTSTGIWLKVNRVHPEPPQIKLEPSKLVRIRGEAAQIVCSATNAEVGFNVILKRGDTKLEIPLNSDFQDNYYKKVRALSLNAVDFQDAGIYSCVASNDVGTRTATMNFQVVESAYLNLTSEQSLLQEVSVGDSLILTVHADAYPSIQHYNWTYLGPFFEDQRKLEFITQRAIYRYTFKLFLNRVKASEAGQYFLMAQNKAGWNNLTFELTLRYPPEVSVTWMPVNGSDVLFCDVSGYPQPSVTWMECRGHTDRCDEAQALQVWNDTHPEVLSQKPFDKVIIQSQLPIGTLKHNMTYFCKTHNSVGNSSQYFRAVSLGQSKQLPDESLFTP
chain (part 2 of 2): HRRLDKVEEEVNLHEDFVFIKKLKRCNKGEGSLSLLNCEEMRRQFEDLVKDITLNKEEKKENSFEMQRGDEDPQIAAHVVSEANSNAASVLQWAKKGYYTMKSNLVMLENGKQLTVKREGLYYVYTQVTFCSNREPSSQRPFIVGLWLKPSSGSERILLKAANTHSSSQLCEQQSVHLGGVFELQAGASVFVNVTEASQVIHRVGFSSFGLLKL
notes: 'constructed as described above in the Detailed Description and in U.S. 62/464,002'; also called mCSF1R-Fc-CD40L; mCD115-Fc-CD40L; not shown: Fc linker
As to B3, the 50% effective concentration (EC50) in test [3] was found to be 91.1 nM.
